Experimental data from paper PMC8961594.

Assays:
[1] = biological target: Histone 2B (H2B) on the surface of HUVECs (human (endogenous in HUVEC)) (UniProt P62807)
[2] = biological target: Histone 2B (H2B) on the surface of HUVECs (human (endogenous in HUVEC)) (UniProt P62807); remark: listed apart in the source

migration of Plg-treated (200 nM) HUVECs in Boyden chambers: decrease by Fab of the anti-H2B mAb (20 µg/mL) against control mouse Fab (Figure 3A) [1]: 47%
Plg-mediated migration of HUVECs in Boyden chambers: decrease by anti-H2B against Plg-treated cells with control mouse IgG (Figure 3B) [2]: 50%
Substance: Human Glu-plasminogen (ligand)
